Legend:
[1] = target: MCP-1 receptor B (CCR2B) (human) (UniProt P41597); test: cell-based or functional assay
[2] = target: MCP-1 receptor B (CCR2B) (human) (UniProt P41597); test: competition with 100 pM 125I-MCP-1 on CHO-CCR2B membranes, filtration; mean of 18 assays
[3] = target: MCP-1 receptor B (CCR2B) (human) (UniProt P41597); test: competition with 100 pM 125I-MCP-1 on CHO-CCR2B membranes, filtration; at least 2 assays
[4] = target: MCP-1 receptor B (CCR2B) (human) (UniProt P41597); test: equilibrium binding of 125I-MCP-1 to CHO-CCR2B membranes
[5] = target: MCP-1 receptor B (CCR2B) (human) (UniProt P41597); test: cold competition of unlabelled MCP-1 against 100 pM 125I-MCP-1 on CHO-CCR2B membranes
[6] = target: MCP-1 receptor B (CCR2B) (human) (UniProt P41597); test: competition with 100 pM 125I-MCP-1 on CHO-CCR2B membranes, filtration; mean of 8 assays

Substance “MCP1(9-76) (SEQ ID NO: 30) (from UniProt P13500 32-99) (ligand)” has a Calcium flux (IC50), THP-1 cells [1] of 45 nM, a Chemotaxis (IC50), THP-1 cells, 1 nM MCP-1 [1] of 12 nM and an IC50 [2] of 1.9 nM.

Work on “Met-MCP1(9-76) (SEQ ID NO: 31) (from UniProt P13500 32-99) (ligand)” yielded an IC50 [3] of 3.2 nM.

Work on “Monocyte Chemoattractant Protein-1 (MCP-1) (from UniProt P13500 24-99) (ligand)” yielded a rise in [Ca2+]i in THP-1 cells (EC50) [1] of 2 nM, a Kd [4] of 0.12 nM and an IC50 [5] of 0.11 nM.

With “[V9A]MCP1(9-76) (SEQ ID NO: 9) (from UniProt P13500 33-99) (ligand)” the Calcium flux (IC50), THP-1 cells [1] was 109 nM, the Chemotaxis (IC50), THP-1 cells, 1 nM MCP-1 [1] was 23 nM and the IC50 [2] was 2.5 nM.

Work on “[V9G]MCP1(9-76) (SEQ ID NO: 26) (from UniProt P13500 33-99) (ligand)” yielded a Chemotaxis (IC50), THP-1 cells, 1 nM MCP-1 [1] of 10.9 nM and an IC50 [6] of 3.2 nM.

In the case of “[V9T]MCP1(9-76) (SEQ ID NO: 29) (from UniProt P13500 33-99) (ligand)”, the Chemotaxis (IC50), THP-1 cells, 1 nM MCP-1 [1] is reported as 21 nM and the IC50 [6] is reported as 2 nM.

Work on “pGlu-MCP1(9-76) (SEQ ID NO: 32) (from UniProt P13500 32-99) (ligand)” yielded an IC50 [3] of 2.6 nM and a Calcium flux (IC50), THP-1 cells [1] of 117 nM.

— patent US6383782
